Source: patent US20210054088A1 (Eli Lilly, published 2021)
Read-outs that look alike come from different tables or passages of the source.

T1: hCD137** ((human CD137 amino acids 22-164, ΔC121S)-AAA-FLAG) (human, UniProt Q07011 22-164)
T1 construct: not shown: FLAG tag
T1 chain: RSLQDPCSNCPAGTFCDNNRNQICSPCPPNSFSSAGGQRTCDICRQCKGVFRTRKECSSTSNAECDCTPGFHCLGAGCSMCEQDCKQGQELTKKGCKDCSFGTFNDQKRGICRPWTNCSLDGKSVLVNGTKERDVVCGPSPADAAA

T2: FcγRIIb (UniProt P31994 43-217, limits assumed)
T2 sequence (looked up): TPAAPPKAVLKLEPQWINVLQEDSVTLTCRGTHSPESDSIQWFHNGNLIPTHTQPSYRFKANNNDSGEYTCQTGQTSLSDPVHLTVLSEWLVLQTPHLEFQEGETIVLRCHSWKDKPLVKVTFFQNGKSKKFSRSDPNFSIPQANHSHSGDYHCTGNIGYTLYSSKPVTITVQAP

T3: FcγRIIa(H) (UniProt P12318 36-218, limits assumed)
T3 sequence (looked up): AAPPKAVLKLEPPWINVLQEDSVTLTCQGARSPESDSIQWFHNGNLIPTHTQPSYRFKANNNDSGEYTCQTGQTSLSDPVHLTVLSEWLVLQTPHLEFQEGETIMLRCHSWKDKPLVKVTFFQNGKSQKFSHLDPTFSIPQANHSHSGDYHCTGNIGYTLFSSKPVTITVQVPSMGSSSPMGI

B1: PF83 (antibody, V domains shown)
VH: EVQLVQSGAEVKKPGESLRISCKGSGYSFSTYWISWVRQMPGKGLEWMGKIYPGDSYTNYSPSFQGQVTISADKSISTAYLQWSSLKASDTAMYYCARGYGIFDYWGQGTLVTVSS
VL: SYELTQPPSVSVSPGQTASITCSGDNIGDQYAHWYQQKPGQSPVLVIYQDKNRPSGIPERFSGSNSGNTATLTISGTQAMDEADYYCATYTGFGSLAVFGGGTKLTVLG
notes: Comparator anti-CD137 antibody, previously described in U.S. Pat. No. 8,337,850
B2: BMS20H4.9 (antibody, human IgG4 S228P, kappa, V domains shown)
VH: QVQLQQWGAGLLKPSETLSLTCAVYGGSFSGYYWSWIRQSPEKGLEWIGEINHGGYVTYNPSLESRVTISVDTSKNQFSLKLSSVTAADTAVYYCARDYGPGNYDWYFDLWGRGTLVTVSS
VL: EIVLTQSPATLSLSPGERATLSCRASQSVSSYLAWYQQKPGQAPRLLIYDASNRATGIPARFSGSGSGTDFTLTISSLEPEDFAVYYCQQRSNWPPALTFGGGTKVEIKR
notes: Comparator anti-CD137 antibody, previously described in U.S. Pat. No. 7,288,638
B3: Antibody A2 (antibody, human IgG1, kappa)
heavy: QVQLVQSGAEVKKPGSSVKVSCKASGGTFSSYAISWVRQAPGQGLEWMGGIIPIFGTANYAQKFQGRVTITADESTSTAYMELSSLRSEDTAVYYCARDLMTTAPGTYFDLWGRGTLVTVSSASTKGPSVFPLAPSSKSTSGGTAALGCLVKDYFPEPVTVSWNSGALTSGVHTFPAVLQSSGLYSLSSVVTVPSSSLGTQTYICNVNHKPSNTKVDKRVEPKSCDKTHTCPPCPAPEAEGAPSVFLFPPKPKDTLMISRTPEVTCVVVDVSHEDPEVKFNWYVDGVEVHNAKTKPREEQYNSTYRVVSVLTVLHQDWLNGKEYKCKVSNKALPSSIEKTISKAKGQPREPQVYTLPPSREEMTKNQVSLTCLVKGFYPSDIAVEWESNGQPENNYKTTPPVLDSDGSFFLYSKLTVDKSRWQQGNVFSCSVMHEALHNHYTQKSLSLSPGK
light: IRMTQSPPSLSASVGDRVTITCQASQDIGNSLGWYQQKPGKAPKLVIFDASDLETGVPSRFSGSGSGTDFSLTISSLQPEDFATYYCQQGNSFPLTFGQGTRLEIKRTVAAPSVFIFPPSDEQLKSGTASVVCLLNNFYPREAKVQWKVDNALQSGNSQESVTEQDSKDSTYSLSSTLTLSKADYEKHKVYACEVTHQGLSSPVTKSFNRGEC
notes: Form lacking the N-terminal alanine of the light chain; IgG1 Fc-null, kappa
B4: Antibody A1/2 (antibody, human IgG1, kappa)
heavy: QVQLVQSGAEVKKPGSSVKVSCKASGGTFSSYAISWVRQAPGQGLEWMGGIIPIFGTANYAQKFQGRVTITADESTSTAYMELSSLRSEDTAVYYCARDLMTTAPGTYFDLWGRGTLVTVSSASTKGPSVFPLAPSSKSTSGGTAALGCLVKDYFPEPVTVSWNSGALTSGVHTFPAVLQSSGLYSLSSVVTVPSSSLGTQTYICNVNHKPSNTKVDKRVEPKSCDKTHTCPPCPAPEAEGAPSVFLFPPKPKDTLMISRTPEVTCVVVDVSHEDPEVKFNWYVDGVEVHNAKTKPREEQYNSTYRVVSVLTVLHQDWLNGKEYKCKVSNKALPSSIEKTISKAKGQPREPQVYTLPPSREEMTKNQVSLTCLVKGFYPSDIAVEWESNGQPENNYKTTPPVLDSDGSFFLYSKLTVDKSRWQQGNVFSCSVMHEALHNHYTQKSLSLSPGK
light: B3 light
notes: Human IgG1 Fc-null, kappa; also called Antibody 1/2
B5: Antibody A1 (antibody, human IgG1, kappa)
heavy: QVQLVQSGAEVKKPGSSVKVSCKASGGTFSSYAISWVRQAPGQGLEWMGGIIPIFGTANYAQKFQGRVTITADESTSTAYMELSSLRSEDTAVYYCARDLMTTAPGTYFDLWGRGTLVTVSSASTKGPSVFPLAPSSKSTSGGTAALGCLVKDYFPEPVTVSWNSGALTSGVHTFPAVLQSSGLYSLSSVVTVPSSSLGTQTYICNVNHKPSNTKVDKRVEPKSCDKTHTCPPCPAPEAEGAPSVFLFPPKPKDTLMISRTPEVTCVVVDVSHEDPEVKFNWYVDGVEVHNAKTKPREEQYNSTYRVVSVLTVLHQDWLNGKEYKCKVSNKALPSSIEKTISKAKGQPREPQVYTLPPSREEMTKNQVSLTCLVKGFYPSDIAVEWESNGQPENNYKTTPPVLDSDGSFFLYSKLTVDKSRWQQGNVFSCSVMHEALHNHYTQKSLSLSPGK
light: AIRMTQSPPSLSASVGDRVTITCQASQDIGNSLGWYQQKPGKAPKLVIFDASDLETGVPSRFSGSGSGTDFSLTISSLQPEDFATYYCQQGNSFPLTFGQGTRLEIKRTVAAPSVFIFPPSDEQLKSGTASVVCLLNNFYPREAKVQWKVDNALQSGNSQESVTEQDSKDSTYSLSSTLTLSKADYEKHKVYACEVTHQGLSSPVTKSFNRGEC
notes: Full length form; IgG1 Fc-null, kappa

Legend:
[1] = biological target: T4, cynomolgus monkey CD137 on stably transfected human 293 cells (cynomolgus monkey, UniProt A9YYE7 24-254); experiment: flow cytometry on 293 cells expressing cynomolgus monkey CD137, antibody at 0.5 micrograms/mL; MFI of antibody / MFI of control IgG
T4 construct: whole, on cells; also called Cyno-CD137
From the text: The ability of the antibodies disclosed herein to bind to cell surface cynomolgus monkey CD137 can be measured using a flow cytometric assay. Cynomolgus monkey CD137 expressing stable cells are generated by transfecting Cyno-CD137 receptor plasmid DNA into human 293 cells (ATCC) using Lipofectamine™ 2000 reagent (Invitrogen™) per manufacturer's protocol. Stable cells are selected using 0.5 micrograms/mL puromycin in Dulbecoo's Modified Eagle's Medium containing 10% fetal bovine serum and 1% GlutaMAX™. For flow cytometry, confluent adherent cells are detached using Gibco® Cell Dissociation Buffer (Life Technologies), blocked in FACS buffer (phosphate buffered saline containing 3% fetal bovine serum) for 1 h at 4° C., and then transferred into a 96-well round-bottom plate at a density of 1×10⁵ cells/well.
After washing in FACS buffer, secondary antibody R-phycoerythrin conjugated goat anti-human IgG, F(ab′)₂ fragment specific antibody (Jackson ImmunoResearch Laboratories) is added at a 1:200 dilution and cells are incubated at 4° C. for 30 minutes. Cells are washed and live/dead cell staining is performed using LIVE/DEAD® Fixable Far Red Dead Cell Stain kit (Life Technologies) per manufacturer's protocol. […] Flow cytometry data is analyzed using FlowJo® Software. Mean fluorescence intensity (MFI) ratio is calculated as the (MFI of Experimental antibody)/(MFI of the control IgG).

[2] = biological target: T5, human CD137-ECD-C121S-Fc mutant D63N (human, UniProt Q07011 24-186); experiment: point ELISA, coated CD137-Fc mutant; mean of absorbance normalised to wild type over eight concentrations;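 also: antibody binding to plate-adsorbed CD137-Fc variants, detected with an HRP-labelled anti-Fab secondary antibody and TMB colour development read as absorbance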
T5 construct: not shown: Fc part

[3] = biological target: T6, human CD137-ECD-C121S-Fc mutant Q104K (human, UniProt Q07011 24-186); experiment: as above
T6 construct: not shown: Fc part

[4] = biological target: T7, human CD137-ECD-C121S-Fc mutant K114E (human, UniProt Q07011 24-186); experiment: as above
T7 construct: not shown: Fc part

[5] = biological target: T8, human CD137-ECD-C121S-Fc mutant S100T (human, UniProt Q07011 24-186); experiment: as above
T8 construct: not shown: Fc part

[6] = biological target: T9, human CD137-ECD-C121S-Fc mutant P27L (human, UniProt Q07011 24-186); experiment: as above
T9 construct: not shown: Fc part

[7] = biological target: T10, human CD137-ECD-C121S-Fc mutant G98Q (human, UniProt Q07011 24-186); experiment: as above
T10 construct: not shown: Fc part

[8] = biological target: T11, human CD137-ECD-C121S-Fc mutant K115Q (human, UniProt Q07011 24-186); experiment: as above
T11 construct: not shown: Fc part

[9] = biological target: T12, human CD137-ECD-C121S-Fc mutant Q67R (human, UniProt Q07011 24-186); experiment: as above
T12 construct: not shown: Fc part

[10] = biological target: T13, human CD137-ECD-C121S-Fc mutant M101R (human, UniProt Q07011 24-186); experiment: as above
T13 construct: not shown: Fc part

[11] = biological target: T14, human CD137-ECD-C121S-Fc mutant G98K (human, UniProt Q07011 24-186); experiment: as above
T14 construct: not shown: Fc part

[12] = biological target: T15, human CD137-ECD-C121S-Fc mutant Q67V (human, UniProt Q07011 24-186); experiment: as above
T15 construct: not shown: Fc part

[13] = biological target: T16, human CD137-ECD-C121S-Fc mutant A97P (human, UniProt Q07011 24-186); experiment: as above
T16 construct: not shown: Fc part

[14] = biological target: human CD137 on stably transfected human 293 cells (human, UniProt Q07011 24-255); experiment: cell-based or functional assay
[15] = biological target: T17, human CD137-ECD-C121S-Fc mutant N42S (human, UniProt Q07011 24-186); experiment: point ELISA on coated CD137-Fc mutant; % of binding relative to wild-type hCD137
T17 construct: not shown: Fc part

[16] = biological target: T1, hCD137** (human CD137 amino acids …); experiment: ELISA, coated hCD137**, anti-Fab detection
Method: The wells of a 96 well Immulon® 4HBX ELISA plate are coated overnight with 50 nanograms of hCD137** in 100 microliters of PBS, pH 7.2 with mild agitation at 4° C. […] The wells treated with the anti-CD137 antibodies are then washed and a 1:10000 dilution of HRP-conjugated goat anti-Fab antibody (Jackson ImmunoResearch Laboratories) is added and incubated at room temperature following standard protocol. The wells treated with hCD137L* are then washed and a 1:5000 dilution of HRP-conjugated mouse anti-His antibody (Sigma-Aldrich®) is added and the plates are incubated at room temperature following standard protocol. TMB peroxidase chromogenic substrate and stop solution are used according to manufacturer's instruction for visualization and detection of signals. Absorbance readings are plotted in GraphPad Prism Software Version 6. EC₅₀ values are calculated by nonlinear regression curve fit analysis of the software's One Site-Specific Binding function.

[17] = biological target: T18, Recombinant human extracellular CD137-Fc protein (R&D Systems) (human, UniProt Q07011 24-186); experiment: SPR (Biacore T200), CD137-Fc immobilised, 25° C., 1:1 Langmuir fit
T18 construct: Bought protein; also called human CD137-Fc; not shown: Fc part of the bought fusion protein

[18] = biological target: T17, human CD137-ECD-C121S-Fc mutant N42S; experiment: point ELISA, coated CD137-Fc mutant; mean of absorbance normalised to wild type over eight concentrations;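 also: antibody binding to plate-adsorbed CD137-Fc variants, detected with an HRP-labelled anti-Fab secondary antibody and TMB colour development read as absorbance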
Method: (§1) To determine the impact of a mutation on the binding of the antibodies, a point ELISA assay against CD137-Fc wild type and mutants is utilized. The wells of a 96-well Immulon 4HBX ELISA plate are coated overnight with 50 nanograms of human CD137-ECD-C121S-Fc or its mutants in 100 microliters of PBS, pH 7.2 with mild agitation at 4° C. […] The wells are washed and a HRP-conjugated secondary antibody (1:10000 dilution of HRP-conjugated goat anti-Fab antibody (Jackson ImmunoResearch Laboratories) is added and incubated at room temperature following standard protocol. TMB peroxidase chromogenic substrate and stop solution are used according to manufacturer's instruction for visualization and detection of signals. Absorbance readings for each concentration point is normalized by the absorbance of the wild-type interaction. For each mutant, the mean of the normalized ratio for the eight concentrations is determined.

[19] = biological target: T18, Recombinant human extracellular …; experiment: ELISA, coated human CD137-Fc
Method: The ability of the antibodies disclosed herein to bind human CD137 can be measured by ELISA. […] Wells are blocked for 2 h with blocking buffer (PBS containing 0.2% bovine serum albumin and 0.05% Tween-20). Wells are washed three times with PBS containing 0.05% Tween-20. […] After washing, the plate is incubated with 100 microliters of goat anti-human IgG F(ab′)2-HRP conjugate (Jackson Immuno Research Laboratories) at room temperature for 45 minutes. The plates are washed and then incubated with 100 microliters of 3,3′, 5,5′-tetra-methylbenzidine. The absorbance at 650 nm is read on a SpectraMax® microplate reader. The half maximal effective concentration (EC₅₀) is calculated using GraphPad Prism 7 software.

Human C1q = Human C1q (human, UniProt P02745 23-245; P02746 28-253; P02747 29-245); experiment: ELISA, antibody coated, human C1q added
Method: Human C1q in casein buffer is added at a concentration of 10 milligrams/mL and incubated for 2 hrs. Human C1q is detected by incubating the plates with anti-human C1q-HRP (AbD Serotec Inc., 1:200 dilution) for 1 h and the plate is developed using TMB (KPL, Inc.). Absorbance is measured at 450 nm with Synergy Neo2 hybrid multi-mode reader (BioTek®).

[20] = biological target: T19, human CD137-ECD-C121S-Fc mutant R130H (human, UniProt Q07011 24-186); experiment: point ELISA, coated CD137-Fc mutant; mean of absorbance normalised to wild type over eight concentrations
T19 construct: not shown: Fc part

[21] = biological target: T20, human CD137-ECD-C121S-Fc mutant R130A (human, UniProt Q07011 24-186); experiment: as above
T20 construct: not shown: Fc part

[22] = biological target: T11, human CD137-ECD-C121S-Fc mutant K115Q; experiment: as above; remark: listed apart in the source
Method: as §1

[23] = biological target: T21, human CD137-ECD-C121S-Fc mutant I132V (human, UniProt Q07011 24-186); experiment: as above
T21 construct: not shown: Fc part

[24] = biological target: T22, human CD137-ECD-C121S-Fc mutant R134Q (human, UniProt Q07011 24-186); experiment: as above
T22 construct: not shown: Fc part

FcγRI = FcγRI (UniProt P12314 16-288, limits assumed); experiment: MSD assay, Fcγ receptor coated
Method: (§2) Briefly, Fcγ receptors are coated onto a Meso Scale plate overnight and serially diluted test antibodies are added to the plate and incubated for 2 h. […] Luminescence is measured on a SECTOR Imager 2400 (Meso Scale Diagnostics) and data is analyzed using GraphPad Prism 7.0 software.

FcγRIIIa(V) = FcγRIIIa(V) (UniProt P08637 17-208, limits assumed); experiment: MSD assay, Fcγ receptor coated
Method: as §2

FcγRIIb = biological target: T2, FcγRIIb; experiment: MSD assay, Fcγ receptor coated
Method: as §2

FcγRIIa(H) = biological target: T3, FcγRIIa(H); experiment: MSD assay, Fcγ receptor coated
Method: as §2

FcγRIIIa(F) = FcγRIIIa(F) (UniProt P08637 17-208, limits assumed); experiment: MSD assay, Fcγ receptor coated
Sequence of FcγRIIIa(F) (P08637 17-208 limits assumed): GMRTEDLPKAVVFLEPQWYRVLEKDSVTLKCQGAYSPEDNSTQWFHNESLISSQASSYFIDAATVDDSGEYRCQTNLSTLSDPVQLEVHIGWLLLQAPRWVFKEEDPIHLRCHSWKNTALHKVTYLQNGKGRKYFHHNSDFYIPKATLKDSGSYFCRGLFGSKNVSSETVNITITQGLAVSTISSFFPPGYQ
Method: as §2

Sequence of human CD137 on stably transfected human 293 cells (Q07011 24-255 limits assumed): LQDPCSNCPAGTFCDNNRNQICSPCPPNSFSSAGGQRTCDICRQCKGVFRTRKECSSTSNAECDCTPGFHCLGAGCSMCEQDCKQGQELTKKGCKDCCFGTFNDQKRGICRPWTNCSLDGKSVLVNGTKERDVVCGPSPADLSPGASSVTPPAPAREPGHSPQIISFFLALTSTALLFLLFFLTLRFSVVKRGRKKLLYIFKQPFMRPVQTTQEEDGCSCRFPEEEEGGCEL
T11 sequence (Q07011 24-186 K115Q/C121S): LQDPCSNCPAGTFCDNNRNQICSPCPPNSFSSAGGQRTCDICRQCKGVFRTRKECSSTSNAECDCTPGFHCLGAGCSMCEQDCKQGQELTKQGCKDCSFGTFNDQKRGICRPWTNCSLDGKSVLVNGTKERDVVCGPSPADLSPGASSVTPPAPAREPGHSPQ
T4 sequence (A9YYE7 entry or part of it): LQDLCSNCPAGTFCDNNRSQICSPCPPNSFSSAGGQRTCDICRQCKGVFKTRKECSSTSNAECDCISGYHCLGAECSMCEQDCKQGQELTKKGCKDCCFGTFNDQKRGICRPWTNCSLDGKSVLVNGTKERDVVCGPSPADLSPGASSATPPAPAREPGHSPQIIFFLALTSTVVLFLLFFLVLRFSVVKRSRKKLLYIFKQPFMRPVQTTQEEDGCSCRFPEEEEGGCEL
T17 sequence (Q07011 24-186 N42S/C121S): as the sequence (Q07011 24-186 K115Q/C121S) above, with N19S, Q92K counted along it
T9 sequence (Q07011 24-186 P27L/C121S): as the sequence (Q07011 24-186 K115Q/C121S) above, with P4L, Q92K counted along it
T5 sequence (Q07011 24-186 D63N/C121S): as the sequence (Q07011 24-186 K115Q/C121S) above, with D40N, Q92K counted along it
T12 sequence (Q07011 24-186 Q67R/C121S): as the sequence (Q07011 24-186 K115Q/C121S) above, with Q44R, Q92K counted along it
T16 sequence (Q07011 24-186 A97P/C121S): as the sequence (Q07011 24-186 K115Q/C121S) above, with A74P, Q92K counted along it
T15 sequence (Q07011 24-186 Q67V/C121S): as the sequence (Q07011 24-186 K115Q/C121S) above, with Q44V, Q92K counted along it
T13 sequence (Q07011 24-186 M101R/C121S): as the sequence (Q07011 24-186 K115Q/C121S) above, with M78R, Q92K counted along it
T10 sequence (Q07011 24-186 G98Q/C121S): as the sequence (Q07011 24-186 K115Q/C121S) above, with G75Q, Q92K counted along it
T14 sequence (Q07011 24-186 G98K/C121S): as the sequence (Q07011 24-186 K115Q/C121S) above, with G75K, Q92K counted along it
T7 sequence (Q07011 24-186 K114E/C121S): as the sequence (Q07011 24-186 K115Q/C121S) above, with K91E, Q92K counted along it
T6 sequence (Q07011 24-186 Q104K/C121S): as the sequence (Q07011 24-186 K115Q/C121S) above, with Q81K, Q92K counted along it
T8 sequence (Q07011 24-186 S100T/C121S): as the sequence (Q07011 24-186 K115Q/C121S) above, with S77T, Q92K counted along it
Sequence of FcγRI (P12314 16-288 limits assumed): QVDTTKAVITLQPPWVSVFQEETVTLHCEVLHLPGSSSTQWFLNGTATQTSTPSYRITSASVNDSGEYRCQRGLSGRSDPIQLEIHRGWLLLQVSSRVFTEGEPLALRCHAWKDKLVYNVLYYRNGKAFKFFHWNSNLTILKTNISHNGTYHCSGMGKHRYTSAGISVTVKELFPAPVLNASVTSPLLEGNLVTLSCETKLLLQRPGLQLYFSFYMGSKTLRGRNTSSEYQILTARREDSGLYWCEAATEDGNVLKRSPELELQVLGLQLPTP
T20 sequence (Q07011 24-186 C121S/R130A): as the sequence (Q07011 24-186 K115Q/C121S) above, with Q92K, R107A counted along it
Sequence of Human C1q (P02745 23-245 limits assumed, chain 1 of 3): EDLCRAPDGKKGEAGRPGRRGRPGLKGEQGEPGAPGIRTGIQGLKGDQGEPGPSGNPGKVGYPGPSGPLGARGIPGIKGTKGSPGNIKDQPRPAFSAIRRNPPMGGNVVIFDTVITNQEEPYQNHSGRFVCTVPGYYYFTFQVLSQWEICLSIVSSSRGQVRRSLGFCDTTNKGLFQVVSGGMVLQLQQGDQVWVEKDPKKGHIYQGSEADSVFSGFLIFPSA
Sequence of Human C1q (P02746 28-253 limits assumed, chain 2 of 3): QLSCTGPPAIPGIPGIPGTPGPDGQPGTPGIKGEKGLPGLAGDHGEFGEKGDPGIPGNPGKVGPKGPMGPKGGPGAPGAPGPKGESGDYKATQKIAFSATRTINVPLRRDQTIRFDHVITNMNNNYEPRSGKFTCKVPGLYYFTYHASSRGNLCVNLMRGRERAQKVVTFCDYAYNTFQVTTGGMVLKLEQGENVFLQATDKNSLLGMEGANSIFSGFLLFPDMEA
Sequence of Human C1q (P02747 29-245 limits assumed, chain 3 of 3): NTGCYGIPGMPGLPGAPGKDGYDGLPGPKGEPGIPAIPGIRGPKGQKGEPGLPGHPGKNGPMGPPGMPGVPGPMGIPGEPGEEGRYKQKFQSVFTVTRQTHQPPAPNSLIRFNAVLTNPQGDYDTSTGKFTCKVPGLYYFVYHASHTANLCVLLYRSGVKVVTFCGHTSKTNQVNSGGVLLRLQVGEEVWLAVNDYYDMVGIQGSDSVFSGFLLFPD
Sequence of FcγRIIIa(V) (P08637 17-208 F176V limits assumed): as the sequence (P08637 17-208 limits assumed) above, with F160V counted along it
T22 sequence (Q07011 24-186 C121S/R134Q): as the sequence (Q07011 24-186 K115Q/C121S) above, with Q92K, R111Q counted along it
T19 sequence (Q07011 24-186 C121S/R130H): as the sequence (Q07011 24-186 K115Q/C121S) above, with Q92K, R107H counted along it
T21 sequence (Q07011 24-186 C121S/I132V): as the sequence (Q07011 24-186 K115Q/C121S) above, with Q92K, I109V counted along it

Row | Binder | MFI ratio [1] | % of binding relative to wild-type hCD137 [2] | % of binding relative to wild-type hCD137 [3] | % of binding relative to wild-type hCD137 [4] | % of binding relative to wild-type hCD137 [5] | % of binding relative to wild-type hCD137 [6] | % of binding relative to wild-type hCD137 [7] | % of binding relative to wild-type hCD137 [8] | % of binding relative to wild-type hCD137 [9] | % of binding relative to wild-type hCD137 [10] | % of binding relative to wild-type hCD137 [11] | % of binding relative to wild-type hCD137 [12] | % of binding relative to wild-type hCD137 [13] | max activity, NF-kappaB luciferase reporter [14] | EC50 [16] | Kd [17] | koff [17] | kon [17] | other results
1 | B1 | 37 | – | – | – | – | – | – | – | – | – | – | – | – | – | – | – | – | – | –
2 | B2 | – | 100% | 100% | 100% | 100% | 85% | 100% | 100% | 100% | 100% | 100% | 100% | 100% | 115% | 0.43 nM | – | – | – | binding result [15]: no binding
3 | B3 | – | – | – | – | – | – | – | – | – | – | – | – | – | 72.3% | – | 5.36 nM | 0.00713 s⁻¹ | 1.33e+06 M⁻¹ s⁻¹ | –
4 | B4 | 153 | 100% | 100% | 20% | 100% | 100% | 100% | 25% | 100% | 100% | 85% | 100% | 15% | – | 1.4 nM | 4.67 nM | 0.00711 s⁻¹ | 1.52e+06 M⁻¹ s⁻¹ | % of binding relative to wild-type hCD137 [18]: 100%; EC50 [19]: 0.027 nM; EC50 (Human C1q): > 330 nM; % of binding relative to wild-type hCD137 [20]: 100%; % of binding relative to wild-type hCD137 [21]: 100%; % of binding relative to wild-type hCD137 [22]: 25%; % of binding relative to wild-type hCD137 [23]: 100%; % of binding relative to wild-type hCD137 [24]: 100%; EC50 (FcγRI): > 5 nM; EC50 (FcγRIIIa(V)): > 134 nM; EC50 (FcγRIIb): > 134 nM; EC50 (FcγRIIa(H)): > 134 nM; EC50 (FcγRIIIa(F)): > 134 nM
5 | B5 | – | – | – | – | – | – | – | – | – | – | – | – | – | 63.4% | – | 3.33 nM | 0.00536 s⁻¹ | 1.61e+06 M⁻¹ s⁻¹ | –
